B1: Pistol ribozyme (parent)
chain: GGGUCGUUGUUCCAUAAUCGCGUGGAUAUGGCACGCAAGUUUCUACCGGGCACCGUAAAUGUCCGACUGGAGCCGUUCGGGCGGCUAUAAACAGACCUCAGGCCCGAAGCGUGGCGGCACCUGCCGCCGGUGGUAAAAAAGAUCGGAAGAGCACACGUCU

Variants of: B1
Test: aptazyme ON/OFF ratio, guanine; higher = stronger switching; co-transcriptional cleavage with and without guanine

Row | Variant | aptazyme ON/OFF ratio
1 | U8G U10G U11C C12A C13A | 1.06
2 | U8G U10G U11C C12A C13U | 1.09
3 | U8G U10G U11C C12A C13G | 1.08
4 | U8G U10G C12G C13U | 1.35
5 | U8G U10G C12G C13G | 1.14
6 | U8G U10G C12G C13A | 1.31
7 | U8G U11A C12A C13U | 1.28
8 | U8G U11A C12A C13A | 1.18
9 | U8G U11A C12A C13G | 1.14
10 | U8G U10C U11G C13A | 1.07
11 | U8G U10C U11G C13U | 1.05
12 | U8G U10C U11G C13G | 1.07
13 | U8G U10A U11A C12A C13A | 1.19
14 | U8G U10A U11A C12A C13U | 1.13
15 | U8G U10A U11A C12A C13G | 1.11
16 | U8G U10G C12U C13U | 1.2
17 | U8G U10G C12U C13G | 1.18
18 | U8G U10G C12U C13A | 1.3
19 | U8G U10A C12U | 1.17
20 | U8G U10A C12A | 1.48
21 | U8G U10A C12G | 1.23

Row | Variant | aptazyme ON/OFF ratio
22 | U8G U10G U11A C13A | 1.16
23 | U8G U10G U11A C13G | 1.18
24 | U8G U10G U11A C13U | 1.33
25 | U8G U10G U11A C12A C13U | 1.3
26 | U8G U10G U11A C12A C13G | 1.14
27 | U8G U10G U11A C12A C13A | 1.18
28 | U8G U10G U11C C13G | 1.02
29 | U8G U10G U11C C13U | 1.04
30 | U8G U10G U11C C13A | 1.04
31 | U8G U10A U11G C13G | 1.04
32 | U8G U10A U11G C13U | 1.04
33 | U8G U10A U11G C13A | 1.08
34 | U8G U10G U11A C12G C13G | 1.17
35 | U8G U10G U11A C12G C13U | 1.34
36 | U8G U10G U11A C12G C13A | 1.13
37 | G9A C12A | 1.92
38 | G9A C12G | 1.71
39 | G9A C12U | 1.78
40 | U8G U10C U11C C12U C13G | 1.27
41 | U8G U10C U11C C12U C13A | 1.14
42 | U8G U10C U11C C12U C13U | 1.09

Row | Variant | aptazyme ON/OFF ratio
43 | U8G U11A C13U | 1.33
44 | U8G U11A C13A | 1.24
45 | U8G U11A C13G | 1.11
46 | U8G U11A C12A | 1.45
47 | U8G U11A C12U | 1.46
48 | U8G U11A C12G | 1.1
49 | U8G U10C U11G C12G C13A | 1.17
50 | U8G U10C U11G C12G C13G | 1.18
51 | U8G U10C U11G C12G C13U | 1.2
52 | G9A U10A U11C C12G C13A | 1.31
53 | G9A U10A U11C C12G C13U | 1.41
54 | G9A U10A U11C C12G C13G | 1.27
55 | U8G U10A U11G C12G C13G | 1.14
56 | U8G U10A U11G C12G C13A | 1.31
57 | U8G U10A U11G C12G C13U | 1.5
58 | G9A U10A U11A C12A C13U | 1.97
59 | G9A U10A U11A C12A C13A | 1.4
60 | G9A U10A U11A C12A C13G | 1.25
61 | U8G G9U U11C C12U | 1.04
62 | U8G G9U U11C C12G | 1.12
63 | U8G U10C U11C C12A | 1.09

Row | Variant | aptazyme ON/OFF ratio
64 | U8G U10C U11C C12G | 1.21
65 | U8G U10C U11C C12U | 1.17
66 | G9A U10A U11A C12G C13G | 1.2
67 | G9A U10A U11A C12G C13U | 1.23
68 | G9A U10A U11A C12G C13A | 1.26
69 | U8G G9U U11G C12A C13G | 1.19
70 | U8G G9U U11G C12A C13A | 1.14
71 | U8G G9U U11G C12A C13U | 1.21
72 | U8G U11G C12A C13U | 1.21
73 | U8G U11G C12A C13G | 1.17
74 | U8G U11G C12A C13A | 1.13
75 | U8G U10A U11C C12A C13U | 1.14
76 | U8G U10A U11C C12A C13A | 1.13
77 | U8G U10A U11C C12A C13G | 1.12
78 | U8G U10A U11A C13G | 1.07
79 | U8G U10A U11A C13U | 1.17
80 | U8G U10A U11A C13A | 1.2
81 | U8G G9U U11G | 1.36
82 | G9A C12G C13U | 1.44
83 | G9A C12G C13A | 1.3
84 | G9A C12G C13G | 1.46

— the RNAGym collection of RNA variant scans (doi:10.1021/acssynbio.7b00057)
